Data taken from patent publication US11959098B2, “Methods and culture media for culturing pluripotent stem cells” (Technion Research & Development Foundation Limited, priority 2010, dated 2024).
“Also recorded” adds a separate entry of the source.

B1: activin A: activin A at concentration of 10 ng/ml added for endoderm differentiation (protein, UniProt P08476 311-426, looked up)
Inhibin beta A chain: GLECDGKVNICCKKQFFVSFKDIGWNDWIIAPSGYHANYCEGECPSHIAGTSGSSLSFHSTVINHYRMRGHSPFANLKSCCVPTKLRPMSMLYYDDGQNIIKKDIQNMIVEECGCS
modifications: Inhibin beta A chain
B2: Noggin: Noggin (10 ngr/ml) added to induce neural differentiation (protein, UniProt Q13253 28-232, looked up)
Noggin: QHYLHIRPAPSDNLPLVDLIEHPDPIFDPKEKDLNETLLRSLLGGHYDPGFMATSPPEDRPGGGGGAAGGAEDLAELDQLLRQRPSGAMPSEIKGLEFSEGLAQGKKQRLSKKLRRKLQMWLWSQTFCPVLYAWNDLGSRFWPRYVKVGSCFSKRSCSVPEGMVCKPSKSVHLTVLRWRCQRRGGQRCGWIPIQYPIISECKCSC

Assays:
[1] = test system: C2 cell line (iPS cell line derived from foreskin fibroblast); experiment: Endodermal differentiation of pluripotent stem cells cultured in suspension; assay type: cell-based, human
Protocol: Differentiation into endodermal cells—Cells cultured in suspension with cell clumps from C2 cell line (iPS cell line derived from foreskin fibroblast) were cultured in suspension for at least 10 passages. Then the factors were removed from the culture medium and the cells were exposed to 10 ng/ml Activin for 48 hours, in medium containing cAMP increasers such as foreskulin, 8-bromocAMP, GABA, IBMX and DBC. Ten days later the cells were analyzed for endodermal markers. […] As shown in FIGS. 10A-10B the differentiated cells express PDX1, a transcription factor indicating differentiation into endoderm lineage, mainly into β-cells.
C2 cells were cultured for more than 10 passages as single cells in suspension in the pCM100F culture medium. For endoderm differentiation, the bFGF and the IL6RIL6 chimera were removed from the culture medium and activin A at concentration of 10 ng/ml was added for 48 hours in a suspension culture. 10 days after exposure to activin A, the cells were plated on Matrigel™ or HFF (human foreskin fibroblast) matrix, or were cultured in a 3-dimensional culture system (in suspension) and were stained to PDX1.

[2] = test system: hESCs cultured in suspension; experiment: Neural differentiation of pluripotent stem cells cultured in suspension; assay type: cell-based, human; details: hESC single cells; retinoic acid (10^−3 M) or Noggin (10 ngr/ml); three weeks after induction
Protocol: Neural differentiation—To induce neural differentiation single cells cultured in suspension were transferred to a medium without bFGF and the IL6RIL6 chimera. Either retinoic acid (10^−3 M) or Noggin (10 ngr/ml) were added for three to seven days. Three weeks after differentiation induction, the cells were plated for staining with fibronectin. The cells were stained for O4 (oligodendrocytes marker), GFAP (Glial fibrillary acidic protein), nestin and β-tubulin.
Differentiation into neuronal cells—Cells from the four tested cell lines (I3, I4, I6 and H9.2) were cultured in suspension with cell clump for at least 25 passages. Then, the factors were removed from the culture medium and 5×10^−5 M Retinoic acid was added for 21 Days. The cells were then transferred to fibronectin coated plates and cultured for additional 5 days before harvesting the cells for analysis.
Human ESCs which are cultured in suspension as single cells are capable of differentiating into the neuronal cell linage—To induce neural differentiation, hESCs which are cultured in suspension as single cells were transferred to a neuronal differentiating medium (without bFGF and the IL6RIL6 chimera) which included either retinoic acid (10^−3 M) or Noggin (10 ngr/ml) as described under “General Materials and Experimental Methods” hereinabove. […]

[3] = C2 clumps, 10 ng/ml for 48 hours with cAMP increasers, ten days later

Row | Molecule | PDX1 expression (immunofluorescence) [1, 3] | Sox17 expression (quantitative RT-PCR) versus non-treated controls [1, 3] | SOX 17 gene expression (real time PCR) ([1]; C2 single cells, 10 ng/ml for 48 hours in suspension) | PDX1 expression (immunostaining) ([1]; C2 single cells, 10 ng/ml for 48 hours, 10 days after exposure) | differentiation into neuronal progenitor cells (GFAP, O4, β-Tubulin, Nestin staining) [2]
1 | B1 | express PDX1 | significant increase in Sox17 expression | an increase could be observed during differentiation from day 2 to 10 | all cells which are stained by DAPI (nuclear staining) are also stained with PDX1; also recorded: expression of PDX1 in the cells | 
2 | B2 |  |  |  |  | differentiated into neuronal progenitor cells
